Source: patent publication US20240165165A1, “PHARMACEUTICAL COMPOSITIONS AND THEIR METHODS OF USE” (The Trustees of Indiana University, priority 2021, published 2024)

Experiments:
Assay type in all cases: cell-based, mouse
EO771 cells = experiment: Western blot of proteins in treated tumor cells
Procedure: (§1) Western blot analysis and mass spectrometry. Western blot analysis was conducted using known procedures. Antibodies were used against ANXA1, β-catenin, caspase 3, Lrp5, Lrp6, Runx2, Sclerostin, Snail, TGFβ, NFATc1, cathepsin K (Cell Signaling, Danvers, MA, USA), DMP1, ANXA6, CXCL5 (Abcam, Cambridge, MA, USA), M-CSF, MMP9, OPN, TPM4 (Santa Cruz, Dallas, TX, USA), WISP1 (R&D systems, Minneapolis, MN, USA), β-actin (Sigma, Saint Louis, MO, USA), LIMA1, Trail (Novus, Centennial, CO, USA), p53 and CXCL1 (Invitrogen, Carlsbad, California, USA), and DSP (ProteinTech, Rosemont, IL, USA). The expression levels of Sclerostin and Lrp5 in CM were detected by ELISA (My BioSource, San Diego, CA, USA). Proteins from A5 osteocyte CM, Y4 osteocyte CM, and osteoclast control CM (RAW264.7 cells) were analyzed by the HF Hybrid Quadrupole Orbitrap mass spectrometry. Among 549 identified proteins, 49 proteins presented higher expression levels in A5 CM than Y4 CM and control CM. Among them, 11 proteins (p53; SPARC=osteonectin; TPM1, TPM4=tropomyosin 1 & 4; ANXA1, ANXA6=annexin A1 & A6; FMOD=fibromodulin; OGN=osteoglycin; DSP=desmoplakin; AHNAK=desmoyokin; and LIMA1=LEVI domain actin-binding protein 1) were identified as potential tumor suppressors.
(§2) Western blot analysis and protein array analysis. Western blot analysis was conducted using the procedure previously described. Antibodies against Lrp5, Runx2, Snail, TGFβ, sclerostin, Calr, p-eIF2α, eIF2α (Cell Signaling, Danvers, MA, USA), LIF, Trail (Novus Biologicals, Centennial, CO, USA), MMP9, NFATc1, cathepsin K (Santa Cruz Biotechnology, Dallas, TX, USA), p53, CXCL2, Ppib (Invitrogen, Carlsbad, CA, USA), Hsp90ab1 (Abcam, Cambridge, UK), and β-actin (Sigma, Saint Louis, MO, USA) were used. A proteome profiler mouse XL cytokine array kit (R&D Systems, Minneapolis, MN, USA) was also employed, and the expression of 111 cytokines and chemokines in MSC-derived CM was determined.
Spheroid assay, plasmid transfection, and Western blot analysis. […]

[1] = system: RANKL-stimulated RAW264.7 pre-osteoclasts; experiment: Western blot of NFATc1 and cathepsin K
Procedure: as §1, with “Among them, 11 proteins (p53; SPARC=osteonectin; TPM1, TPM4=tropomyosin 1 & 4; ANXA1, ANXA6=annexin A1 & A6; FMOD=fibromodulin; OGN=osteoglycin; DSP=desmoplakin; AHNAK=desmoyokin; and LIMA1=LEVI domain actin-binding protein 1) were identified as potential tumor suppressors.” left out
Western blot analysis and protein array analysis. […] A proteome profiler mouse XL cytokine array kit (R&D Systems, Minneapolis, MN, USA) was also employed, and the expression of 111 cytokines and chemokines in MSC-derived CM was determined.
Western blot analysis. […] The protein concentration was determined using a BCA Protein Assay kit (Thermo-Fisher). […]

TRAMP cells = experiment: Western blot of proteins in treated tumor cells
Procedure: as §2
Western blot analysis. Cultured cells were lysed in a radio-immunoprecipitation assay buffer with protease inhibitors (Santa Cruz Biotechnology, Santa Cruz, CA, USA) and phosphatase inhibitors (Calbiochem, Billerica, MA, USA). The protein concentration was determined using a BCA Protein Assay kit (Thermo-Fisher). Proteins were fractionated by 10-15% SDS gels and electro-transferred to polyvinylidene difluoride transfer membranes (Millipore, Billerica, MA, USA). […] The level of proteins was determined using a SUPERSIGNAL™ west femto maximum sensitivity substrate (Thermo Scientific, Waltham, MA, USA), and a luminescent image analyzer (LAS-3000, Fuji Film, Tokyo, Japan) was used to quantify signal intensities. […]

B1: Trail: recombinant TRAIL proteins, apoptosis-inducing factor (protein, UniProt P50592 1-291, looked up)
Tumor necrosis factor ligand …: MPSSGALKDLSFSQHFRMMVICIVLLQVLLQAVSVAVTYMYFTNEMKQLQDNYSKIGLACFSKTDEDFWDSTDGEILNRPCLQVKRQLYQLIEEVTLRTFQDTISTVPEKQLSTPPLPRGGRPQKVAAHITGITRRSNSALIPISKDGKTLGQKIESWESSRKGHSFLNHVLFRNGELVIEQEGLYYIYSQTYFRFQEAEDASKMVSKDKVRTKQLVQYIYKYTSYPDPIVLMKSARNSCWSRDAEYGLYSIYQGGLFELKKNDRIFVSVTNEHLMDLDQEASFFGAFLIN
EO771 cells
  tumor-promoting/tumorigenic proteins (Lrp5, MMP9, Runx2, TGFβ, Snail, IL1β etc.) in EO771 cells: reduced
[1]
  NFATc1 and cathepsin K: decreased
TRAMP cells
  cleaved caspase 3 in TRAMP cells: increase
TRAMP cells; Western blot
  tumor-promoting genes (Lrp5, Runx2, MMP9, Snail, TGFβ) in TRAMP cells: downregulated
